Four molecules from patent US20240067950A1, “MEANS AND METHODS FOR DETOXIFYING OCHRATOXIN A” (DSM Austria GmbH, priority 2020, published 2024) can be followed below.

The nature of series [1]: OTA hydrolyzing activity assay (specific activity). The format is biochemical. To be noted: 37° C., 200 ng/mL OTA in 100 mM sodium phosphate buffer. Here is the method: To determine the specific activity of recombinant target polypeptides produced e.g. as described in Example 1 above in units per liter (U/L), ochratoxin A (OTA) hydrolyzing activity assays were performed. One unit is defined as the amount of enzyme necessary for hydrolysis of 1 μmol or OTA in 1 min when using a starting OTA concentration of 0.495 μM.
OTA hydrolyzing activity assays were set up in a final volume of the reaction mixture of 200 μL, containing the recombinant enzyme preparation (preferably diluted to yield a volumetric activity of 1-10 mU/L), and 200 ng/mL OTA in 100 mM sodium phosphate buffer.
Specific activities were determined at pH 6.0 and pH 7.5. As soon as all components of the reaction mixture were mixed, OTA hydrolysis was followed at 37° C. on a fluorescence spectrophotometer (BioTek Synergy H1 MFD Multimode microplate reader) by following the reduction in fluorescence at ex/em 390 nm/450 nm.
For calculation of the specific activity, the initial linear part of the recorded fluorescence reduction curve was used. In addition to the fluorescence-based method described above, OTA hydrolysis was also determined by using the HPLC-MS method as described by Dellafiora et al. 2020, Toxins 12, 258, essentially confirming the fluorescence-based results. The specific activities for the polypeptides having amino acid sequences of SEQ ID NOs: 1-4 at different pH are shown in Table 1.

Series [2] in a line: Thermostability assay (residual OTA hydrolyzing activity after 10 min heat incubation). Type of series: physicochemical. To be noted: 10 min incubation at 45, 55, 65, 75 or 85 ° C.; 0.1 mg/mL in 20 mM Tris-HCl pH 7.5; relative to 4° C. reference aliquot. Here is the method: To determine the kinetic stability of the produced enzymes towards temperature, thermostability assays were performed. To this end, purified protein samples were diluted to a protein concentration of 0.1 mg/mL in 20 mM Tris-HCl buffer pH 7.5 and aliquots were incubated in a thermocycler for 10 min at either 45, 55, 65, 75 or 85 ° C. After this incubation, the aliquots were stored at 4° C. until further analysis. A reference aliquot was stored at 4° C. throughout the incubation. Subsequently, all aliquots were assayed for residual OTA hydrolyzing activity using the assay described in Example 2. Residual enzyme activities were calculated relative to the reference aliquot. The temperature range in which 50% of the initial activity was lost after the incubation, in relation to the reference aliquot was determined.

A short description of series [3]: Piglet feeding trial, OTA in plasma and urine by HPLC-MS. The format is in vivo, piglets. To be noted: for OTA concentration, plasma samples, Day 14 / OTA concentration, urine samples, Day 14: piglets; for % OTA reduction, plasma samples / % OTA reduction, urine samples: day 14. Here is the method: To verify the applicability of the produced enzymes as food or feed additive, piglet feeding trials were conducted. To this end, sufficient amounts of the polypeptide of SEQ ID NO: 1 were produced by cultivation of E. coli transformants in bioreactors. The cell broth was homogenized and centrifuged. The supernatant was concentrated, dried by lyophilization and formulated as a powder by grinding. The enzymatic activity of the thus obtained lyophilized powder was determined, and the powder was mixed with feed for the feeding trial as described in the following.
Five piglet groups were studied based on the following five experimental diet setups: 1) Base feed; 2) base feed+50 ppb OTA; 3) base feed+50 ppb OTA+169 mU of the enzyme of SEQ ID NO: 1 per kg of feed; 4) base feed+500 ppb OTA; 5) base feed+500 ppb OTA+169 mU of the enzyme of SEQ ID NO: 1 per kg of feed.
Each trial group consisted of four piglets weighing approximately 7-8 kg, who were coming out from weaning and adapted to solid diet before being fed the experimental diet as described above. The duration of the feeding trial (i.e. actual days of feeding the experimental diet) was fourteen days. Collectively each trial group consumed around 15 kg of feed. No piglets fell sick to any unexpected disease throughout the feeding trial. Urine and blood samples were collected on day 0, just before starting the experimental diet, and on day 14.
Extraction of OTA was performed from plasma and urine samples for subsequent analysis by HPLC-MS. 200 μL of sample was thoroughly mixed with 800 μL of extraction solution (containing 99% of ethyl acetate and 1% of phosphoric acid, 85%) followed by centrifugation at 19000×g for 5 min for phase separation. 50 μL of upper phase was diluted with 50 μL of acetonitrile, followed by HPLC-MS analysis. The H PLC-MS method as described by Dellafiora et al. 2020, Toxins 12, 258 was used to determine the changes in OTA concentration in the samples taken during the trial upon consumption of the experimental diets. The results are shown in Table 3 using the diet setup numbering as indicated above.

[4] abbreviates: diet setup 3: base feed+50 ppb OTA+169 mU enzyme per kg of feed.
Where [5] appears, read: diet setup 5: base feed+500 ppb OTA+169 mU enzyme per kg of feed.

B1: SEQ ID NO: 4: OTA-hydrolyzing polypeptide 4 of the present invention, recombinantly produced in E. coli (protein)
chain: MARDPLPADVRLLIRNNMASAHPQVPTIDGLDSKTQNDVFTAIDAINNDMRDLSLAIHENPELGFKEVKAHANLVKALSKLGFTITNPTSLETAFVATWSNGSGGRTFGFNAEYDALPGIGHACGHNLIAIVAVASAVGCKAAMEKQGISGTIKVIGSPAEEGGGGKIILFNEGVYDGLDACAMAHPGGGMPADGYDGQAPAEGKPASLARAGFIVDFVGKPAHAGAAPWMGVNAVDAAVLGYNGVSMLRQQLEPTVRVHGVIRGPNDWVNNIIPASSHVEYDVRAPDVKQAMAVRNKAIACFESAAHATGCSHTTQSKDKDIYAELRNSIRMAGVYADIMEEVFDQHIQRDGMTTASTDFGNITISACPAVHPMYLIETDGVNHTPEFTAGAATMDSHERSIKVAKGLALLGFKVLTDDVFAKKIKDEFEEQKKRLGA
modifications: OTA hydrolyzing polypeptide 4
notes: OTA-hydrolyzing polypeptide 4 of the present invention, recombinantly produced in E. coli
On to B1, for which the “Specific OTA hydrolyzing activity” value in series [1] (pH 6) was 1.57 U/g; in series [1] (pH 7.5), 1.43 U/g. In series [2], the “Temperature range in which 50% of the initial activity was lost” value was 45-55 °C.

B2: SEQ ID NO: 3: OTA-hydrolyzing polypeptide 3 of the present invention, recombinantly produced in E. coli (protein)
chain: MARDEIPADVKALIAQTVTALHGLAPPSAEFDDETQDAVFEAIDAIDDAMWDLNKKIHDHPELGFEEHKARANLVAALCKLGFTVTNPSSLPTAFVATYTHGHGGRTFGVDAEYDALRDVGHACGHNLIAVAAVAAAAGLKAALKARNISGTVKLIGSPAEEGGGGKVILLNEGVYDCLDACVMAHPEGGMIGDDYDGSAYVGGPASLARAGFEIEFHGRGAHAGAAPWLGINALDAAVQGYTAVSMLRQQLEPTMRVHGIIQGSEKWAQNIIPSYAKVSYSTRALDVKKTLELRDKTVDCFASAAKATGCTYDVTAPETEVYAELRNNQPLADAYADLMTKAFGQKIERRGMTTASTDFGNVTYHLPAIHPGFTIESETVNHTKGFTEAAGKKDAHERTMKVAKGLAMVGAKFLADDKFAKDVRKAFEKFKREVE
modifications: OTA hydrolyzing polypeptide 3
notes: OTA-hydrolyzing polypeptide 3 of the present invention, recombinantly produced in E. coli
As to B2, the “Specific OTA hydrolyzing activity” value in series [1] (pH 6) amounted to 0.63 U/g; in series [1] (pH 7.5) it was 1.44 U/g. Further, the “Temperature range in which 50% of the initial activity was lost” value in series [2] was 55-65 °C.

B3: SEQ ID NO: 1: OTA-hydrolyzing polypeptide 1 of the present invention, recombinantly produced in E. coli (protein)
chain: MSDHLPADVRDLIRQTMSRLENLVPPSAAFDDETQDAVFEAIDSIDGDMLALNKAIHDNPELGFHEVKAHHHLVQALIKLGFAVTNPTSLPTAFVATWSHGSGGRTFGFNAEYDALPGVGHACGHNLIAIVAVASAAGLKAALKARNIPGTIKVIGSPAEEGGGGKVILLNEGAYDGIDACVMAHPEGGVPGIDDDGSAYTSGPATLARAGFSVELFGKAAHAGAAPWLGVNALDAAVQGYTAVSMLRQQIEPTMRVHGVFDYGKEKWVQNIIPAYAKVEYSTRALDVKSTLELRKKVISCFESAATATGCTHKVSAPETEVYAELRNNVTLADAYADFMTTAFGQKIGRVGITTASTDFGNVTYKMPAIHPGFHLISKGVNHTPEFADAAGTLDAHERAIKVAKGLAMLGAKFLQDDKFAKEVKRKFDEFKKEVGELKLTDNENEVQEVNGVMKQEHIAEQVDEIWL
modifications: OTA hydrolyzing polypeptide 1
notes: OTA-hydrolyzing polypeptide 1 of the present invention, recombinantly produced in E. coli
For B3, the “Specific OTA hydrolyzing activity” value in series [1] (pH 6) turned out to be 0.11 U/g. Also, the “Specific OTA hydrolyzing activity” value in series [1] (pH 7.5) worked out at 1.20 U/g. The “Temperature range in which 50% of the initial activity was lost” value in series [2] was 45-55 °C. In series [3] (setting [4]), the “OTA concentration, plasma samples, Day 14” value is 37 ± 3; the “OTA concentration, urine samples, Day 14” value came to 0.00; the “% OTA reduction, plasma samples” value turned out to be 9%; the “% OTA reduction, urine samples” value came to 100.0%. Also, in series [3] (setting [5]), the “OTA concentration, plasma samples, Day 14” value is listed as 350 ± 25; the “OTA concentration, urine samples, Day 14” value is given as 25.18; the “% OTA reduction, plasma samples” value is on record as 15%; the “% OTA reduction, urine samples” value is listed as 48.4%.

B4: SEQ ID NO: 2: OTA-hydrolyzing polypeptide 2 of the present invention, recombinantly produced in E. coli (protein)
chain: MARDEIPADVKALIAQTVTALHGLAPPSAEFDDETQDAVFEAIDAIDGAMWDLNKKIHDHPELGFKEHKARANLVAALCKLGFTVTNPSSLPTAFVATYTQGHGGRTFGVDAEYDALPEVGHACGHNLIAVAAVAAAAGLKAALKARNIAGTIKLIGSPAEEGGGGKVILLNEGVYDCLDACVMAHPEGGMIGNDYDGSAYVGGPASLARAGFEIEFHGRGAHAGAAPWLGINALDAAVQGYTAVSMLRQQLEPTMRVHGIIQGSEKWAQNIIPSYAKVSYSTRALDVKKTLELRDKTVDCFASAAKATGCTYELTAPETEVYAELRNNEPLADAYADLMTHAFGQKIERRGMTTASTDFGNVTYHVPAIHPGFTIESDTVNHTAGFTEAAGKKGAHERTMKVAKGLAMVGAKFLADDKFAKDVRKAFEKFKKGAQ
modifications: OTA hydrolyzing polypeptide 2
notes: OTA-hydrolyzing polypeptide 2 of the present invention, recombinantly produced in E. coli
For B4, the entries for the “Specific OTA hydrolyzing activity” value in series [1] (pH 6) and in series [1] (pH 7.5) were 3.53 U/g and 11.01 U/g, respectively. Also, in series [2], the “Temperature range in which 50% of the initial activity was lost” value was 65-75 °C.
